“And” between values parts separate entries of the source, which are not always exact repeats. Equal entries are not always repeated.
How the values were obtained:
[1] = molecular target: zRET^ECD-zGDNF^mat.-zGFRα1a^D1-3 ternary complex (zRGα1a), 2:2:2 (zebrafish) (UniProt A8E7C6); experiment: cryo-EM micrographs, particle-pair analysis and 2D class averages; non-crosslinked zRGα1a at 0.1 mg/ml on Quantifoil grids (dataset 3); complex with complex in linear arrays
[2] = molecular target: T1, zebrafish RET extracellular domain (zRET^ECD), A8E7C6; experiment: MST; conditions: chain shown with the change
T1 chain: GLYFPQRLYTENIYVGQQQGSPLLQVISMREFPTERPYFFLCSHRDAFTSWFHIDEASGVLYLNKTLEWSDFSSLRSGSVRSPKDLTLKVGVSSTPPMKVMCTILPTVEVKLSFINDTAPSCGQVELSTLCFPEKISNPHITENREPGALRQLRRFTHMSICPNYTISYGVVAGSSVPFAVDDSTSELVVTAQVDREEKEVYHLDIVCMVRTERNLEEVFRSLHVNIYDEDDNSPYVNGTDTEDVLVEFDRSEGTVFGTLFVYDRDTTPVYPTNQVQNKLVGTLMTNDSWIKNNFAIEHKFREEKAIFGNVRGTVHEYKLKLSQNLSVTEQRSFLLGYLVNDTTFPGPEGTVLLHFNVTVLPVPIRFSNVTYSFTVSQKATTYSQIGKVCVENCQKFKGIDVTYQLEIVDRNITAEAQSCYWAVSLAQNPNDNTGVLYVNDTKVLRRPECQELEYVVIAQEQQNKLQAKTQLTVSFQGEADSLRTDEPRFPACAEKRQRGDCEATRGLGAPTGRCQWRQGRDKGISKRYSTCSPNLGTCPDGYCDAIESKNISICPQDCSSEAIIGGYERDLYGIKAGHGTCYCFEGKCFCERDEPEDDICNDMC

[3] = molecular target: zebrafish RET extracellular domain (zRET^ECD) (zebrafish) (UniProt A8E7C6); experiment: MST; zRET^ECD labelled with NHS-RED (50 nM fluorophore) held constant, unlabelled zGFRα1^D1-3-zGDNF^mat. (WT and mutants) in 1:1 serial dilution; 25°C; 20 mM HEPES pH 7.0, 150 mM NaCl, 1 mM CaCl2, 0.05 % Tween-20; quadratic fit, at least three repeats
[4] = molecular target: zRET^ECD with the CLD3-β2-β3 loop truncated to AAG (zRET^ECD_(P291-Q296:AAG)) (zebrafish) (UniProt A8E7C6); experiment: as above
[5] = molecular target: the molecule itself; experiment: cryo-EM structure; reconstituted zRGα1a complex crosslinked by GraFix (glutaraldehyde), 0.1 mg/ml; 20 mM Tris pH 7.0, 150 mM NaCl, 1 mM CaCl2; untilted and 30° tilted datasets
[6] = molecular target: T2, zGDNF^mat._(Y158A)-zGFRα1a^D1−3WT complex (zebrafish, UniProt Q98TT9 1-353; Q98TU0 135-235, Y158A); experiment: MST
T2 sequence 1: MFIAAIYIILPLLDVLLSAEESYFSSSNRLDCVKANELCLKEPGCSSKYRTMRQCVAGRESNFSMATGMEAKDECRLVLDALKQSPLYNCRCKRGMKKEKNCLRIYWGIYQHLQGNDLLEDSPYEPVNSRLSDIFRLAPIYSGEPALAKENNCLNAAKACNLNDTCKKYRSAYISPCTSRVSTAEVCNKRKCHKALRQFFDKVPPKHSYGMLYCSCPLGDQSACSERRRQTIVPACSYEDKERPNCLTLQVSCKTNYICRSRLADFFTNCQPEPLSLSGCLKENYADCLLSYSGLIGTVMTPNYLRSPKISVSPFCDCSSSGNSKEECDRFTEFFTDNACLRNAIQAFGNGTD
T2 sequence 2: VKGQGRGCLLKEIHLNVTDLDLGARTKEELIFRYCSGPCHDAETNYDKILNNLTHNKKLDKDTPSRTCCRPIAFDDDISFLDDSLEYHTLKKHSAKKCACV

With “zRET^ECD-zGDNF^mat.-zGFRα1a^D1-3 ternary complex (zRGα1a), 2:2:2 (from UniProt A8E7C6 1-626; Q98TT9 1-353; Q98TU0 135-235)” the stoichiometry N [1] was 2 and 4.

B1: zGDNF^mat.-zGFRα1a^D1-3 complex (2:2), wild type, Q98TT9;Q98TU0 N323A (protein)
chain 1: MFIAAIYIILPLLDVLLSAEESYFSSSNRLDCVKANELCLKEPGCSSKYRTMRQCVAGRESNFSMATGMEAKDECRLVLDALKQSPLYNCRCKRGMKKEKNCLRIYWGIYQHLQGNDLLEDSPYEPVNSRLSDIFRLAPIYSGEPALAKENNCLNAAKACNLNDTCKKYRSAYISPCTSRVSTAEVCNKRKCHKALRQFFDKVPPKHSYGMLYCSCPLGDQSACSERRRQTIVPACSYEDKERPNCLTLQVSCKTNYICRSRLADFFTNCQPEPLSLSGCLKENYADCLLSYSGLIGTVMTPNYLRSPKISVSPFCDCSSSGASKEECDRFTEFFTDNACLRNAIQAFGNGTD
chain 2: VKGQGRGCLLKEIHLNVTDLDLGYRTKEELIFRYCSGPCHDAETNYDKILNNLTHNKKLDKDTPSRTCCRPIAFDDDISFLDDSLEYHTLKKHSAKKCACV
B1 gave a Kd ([2]; fluorescently labeled zRETECD, minimum of n = 3 repeats) of 88 nM.

B2: zGDNF^mat.-zGFRα1a^D1-3 complex (2:2), wild type (complex)
chain 1: MFIAAIYIILPLLDVLLSAEESYFSSSNRLDCVKANELCLKEPGCSSKYRTMRQCVAGRESNFSMATGMEAKDECRLVLDALKQSPLYNCRCKRGMKKEKNCLRIYWGIYQHLQGNDLLEDSPYEPVNSRLSDIFRLAPIYSGEPALAKENNCLNAAKACNLNDTCKKYRSAYISPCTSRVSTAEVCNKRKCHKALRQFFDKVPPKHSYGMLYCSCPLGDQSACSERRRQTIVPACSYEDKERPNCLTLQVSCKTNYICRSRLADFFTNCQPEPLSLSGCLKENYADCLLSYSGLIGTVMTPNYLRSPKISVSPFCDCSSSGNSKEECDRFTEFFTDNACLRNAIQAFGNGTD
chain 2: VKGQGRGCLLKEIHLNVTDLDLGYRTKEELIFRYCSGPCHDAETNYDKILNNLTHNKKLDKDTPSRTCCRPIAFDDDISFLDDSLEYHTLKKHSAKKCACV
B2 showed a Kd [3] of 90 nM and a Kd [4] of 18 nM.

B3: zGDNF^mat.WT-zGFR1α1a^D1−3_(E326A,E327A) complex (complex)
chain 1: MFIAAIYIILPLLDVLLSAEESYFSSSNRLDCVKANELCLKEPGCSSKYRTMRQCVAGRESNFSMATGMEAKDECRLVLDALKQSPLYNCRCKRGMKKEKNCLRIYWGIYQHLQGNDLLEDSPYEPVNSRLSDIFRLAPIYSGEPALAKENNCLNAAKACNLNDTCKKYRSAYISPCTSRVSTAEVCNKRKCHKALRQFFDKVPPKHSYGMLYCSCPLGDQSACSERRRQTIVPACSYEDKERPNCLTLQVSCKTNYICRSRLADFFTNCQPEPLSLSGCLKENYADCLLSYSGLIGTVMTPNYLRSPKISVSPFCDCSSSGNSKAACDRFTEFFTDNACLRNAIQAFGNGTD
chain 2: VKGQGRGCLLKEIHLNVTDLDLGYRTKEELIFRYCSGPCHDAETNYDKILNNLTHNKKLDKDTPSRTCCRPIAFDDDISFLDDSLEYHTLKKHSAKKCACV
For B3, the Kd [3] was 170 nM.

B4: zGDNFwt-zGFR1α1a^D1−3_(N323A,E326A,E327A) complex (complex)
chain 1: MFIAAIYIILPLLDVLLSAEESYFSSSNRLDCVKANELCLKEPGCSSKYRTMRQCVAGRESNFSMATGMEAKDECRLVLDALKQSPLYNCRCKRGMKKEKNCLRIYWGIYQHLQGNDLLEDSPYEPVNSRLSDIFRLAPIYSGEPALAKENNCLNAAKACNLNDTCKKYRSAYISPCTSRVSTAEVCNKRKCHKALRQFFDKVPPKHSYGMLYCSCPLGDQSACSERRRQTIVPACSYEDKERPNCLTLQVSCKTNYICRSRLADFFTNCQPEPLSLSGCLKENYADCLLSYSGLIGTVMTPNYLRSPKISVSPFCDCSSSGASKAACDRFTEFFTDNACLRNAIQAFGNGTD
chain 2: VKGQGRGCLLKEIHLNVTDLDLGYRTKEELIFRYCSGPCHDAETNYDKILNNLTHNKKLDKDTPSRTCCRPIAFDDDISFLDDSLEYHTLKKHSAKKCACV
Molecule B4 has a Kd [3] of 2350 nM.

B5: zGDNF^mat._(Y158A)-zGFRα1a^D1−3WT complex (complex)
chain 1: MFIAAIYIILPLLDVLLSAEESYFSSSNRLDCVKANELCLKEPGCSSKYRTMRQCVAGRESNFSMATGMEAKDECRLVLDALKQSPLYNCRCKRGMKKEKNCLRIYWGIYQHLQGNDLLEDSPYEPVNSRLSDIFRLAPIYSGEPALAKENNCLNAAKACNLNDTCKKYRSAYISPCTSRVSTAEVCNKRKCHKALRQFFDKVPPKHSYGMLYCSCPLGDQSACSERRRQTIVPACSYEDKERPNCLTLQVSCKTNYICRSRLADFFTNCQPEPLSLSGCLKENYADCLLSYSGLIGTVMTPNYLRSPKISVSPFCDCSSSGNSKEECDRFTEFFTDNACLRNAIQAFGNGTD
chain 2: VKGQGRGCLLKEIHLNVTDLDLGARTKEELIFRYCSGPCHDAETNYDKILNNLTHNKKLDKDTPSRTCCRPIAFDDDISFLDDSLEYHTLKKHSAKKCACV
Molecule B5 has a fold decrease in affinity against the wild type [3] of 2 fold.

B6: zGDNF^mat.-zGFRα1a^D1-3 complex (2:2), wild type, Q98TT9;Q98TU0 L156A (protein)
chain 1: MFIAAIYIILPLLDVLLSAEESYFSSSNRLDCVKANELCLKEPGCSSKYRTMRQCVAGRESNFSMATGMEAKDECRLVLDALKQSPLYNCRCKRGMKKEKNCLRIYWGIYQHLQGNDLLEDSPYEPVNSRLSDIFRLAPIYSGEPALAKENNCLNAAKACNLNDTCKKYRSAYISPCTSRVSTAEVCNKRKCHKALRQFFDKVPPKHSYGMLYCSCPLGDQSACSERRRQTIVPACSYEDKERPNCLTLQVSCKTNYICRSRLADFFTNCQPEPLSLSGCLKENYADCLLSYSGLIGTVMTPNYLRSPKISVSPFCDCSSSGNSKEECDRFTEFFTDNACLRNAIQAFGNGTD
chain 2: VKGQGRGCLLKEIHLNVTDLDAGYRTKEELIFRYCSGPCHDAETNYDKILNNLTHNKKLDKDTPSRTCCRPIAFDDDISFLDDSLEYHTLKKHSAKKCACV
For B6, the Kd [2] was 88 nM.

B7: zebrafish GDNF, N-terminally truncated (zGDNF^mat.) (ligand, UniProt Q98TU0 135-235, looked up)
chain: VKGQGRGCLLKEIHLNVTDLDLGYRTKEELIFRYCSGPCHDAETNYDKILNNLTHNKKLDKDTPSRTCCRPIAFDDDISFLDDSLEYHTLKKHSAKKCACV
notes: One protomer; it stands as a dimer in the complexes; also called GDNF1; not shown: Protein A, C-terminal, cleaved
In the case of B7, the “stoichiometry N” value [5] is reported as 2.

B8: zebrafish RET extracellular domain (zRET^ECD) (domain or fragment)
chain: GLYFPQRLYTENIYVGQQQGSPLLQVISMREFPTERPYFFLCSHRDAFTSWFHIDEASGVLYLNKTLEWSDFSSLRSGSVRSPKDLTLKVGVSSTPPMKVMCTILPTVEVKLSFINDTAPSCGQVELSTLCFPEKISNPHITENREPGALRQLRRFTHMSICPNYTISYGVVAGSSVPFAVDDSTSELVVTAQVDREEKEVYHLDIVCMVRTERNLEEVFRSLHVNIYDEDDNSPYVNGTDTEDVLVEFDRSEGTVFGTLFVYDRDTTPVYPTNQVQNKLVGTLMTNDSWIKNNFAIEHKFREEKAIFGNVRGTVHEYKLKLSQNLSVTEQRSFLLGYLVNDTTFPGPEGTVLLHFNVTVLPVPIRFSNVTYSFTVSQKATTYSQIGKVCVENCQKFKGIDVTYQLEIVDRNITAEAQSCYWAVSLAQNPNDNTGVLYVNDTKVLRRPECQELEYVVIAQEQQNKLQAKTQLTVSFQGEADSLRTDEPRFPACAEKRQRGDCEATRGLGAPTGRCQWRQGRDKGISKRYSTCSPNLGTCPDGYCDAIESKNISICPQDCSSEAIIGGYERDLYGIKAGHGTCYCFEGKCFCERDEPEDDICNDMC
modifications: NHS-RED 2nd generation dye (amine reactive) in the MST only
For B8, the Kd [6] was 173 nM.
